Results published in US20250179176A1, “ANTI-TIGIT ANTIBODIES AND USES OF THE SAME” (ARCUS BIOSCIENCES, INC., priority 2022, published 2025).

Test: Pharmacokinetics of domvanalimab in humans
Assay type: in vivo, human
Details: Q2W
Excerpt: The present example illustrates the pharmacokinetics of domvanalimab in human subjects. […] Subjects had ≥1 measurable lesion per RECIST v1.1 and ECOG performance status score 0-1.
Examination of the mean PK plots indicated similar PK across the dosing regimens.

[1] = first cycle, over 20-fold dose range 0.5-10 mg/kg

B1: domvanalimab: anti-TIGIT antibody with engineered IgG1 Fc, reduced FcγR binding; heavy chain SEQ ID NO: 12, light chain SEQ ID NO: 13 (antibody)
heavy: EVQLVESGGGLVQPGGSLRLSCAASGFTFSNFGMHWVRQAPGKGLEWVAFISSGSSSIYYADTVKGRFTISRDNAKNSLYLQMNSLRAEDTAVYYCARMRLDYYAMDYWGQGTMVTVSSASTKGPSVFPLAPSSKSTSGGTAALGCLVKDYFPEPVTVSWNSGALTSGVHTFPAVLQSSGLYSLSSVVTVPSSSLGTQTYICNVNHKPSNTKVDKKVEPKSCDKTHTCPPCPAPEAAGGPSVFLFPPKPKDTLMISRTPEVTCWVDVSHEDPEVKFNWYVDGVEVHNAKTKPREEQYNSTYRWSVLTVLHQDWLNGKEYKCKVSNKALPAPIEKTISKAKGQPREPQVYTLPPSRDELTKNQVSLTCLVKGFYPSDIAVEWESNGQPENNYKTTPPVLDSDGSFFLYSKLTVDKSRWQQGNVFSCSVMHEALHNHYTQKSLSLSPGK
light: DIQMTQSPSSLSASVGDRVTITCRASKSISKYLAWYQQKPGKAPKLLIYSGSTLQSGVPSRFSGSGSGTDFTLTISSLQPEDFATYYCQQHNEYPWTFGGGTKVEIKRTVAAPSVFIFPPSDEQLKSGTASWCLLNNFYPREAKVQWKVDNALQSGNSQESVTEQDSKDSTYSLSSTLTLSKADYEKHKVYACEVTHQGLSSPVTKSFNRGEC
0.5-10 mg/kg
  dose proportionality of PK: roughly dose proportional
[1]
  increase of concentration at end of infusion (Ceoinf): 15 fold
  increase of concentration at the end of the dosing interval (Ctrough): 27 fold
  increase of mean area under the concentration time curve over the first dosage interval: 17 fold
